Experimental data published in patent US20240209109A1.

Tests used:
[1] = molecular target: human CD40 on cells (human) (UniProt P25942); experiment: FACS on Jurkat cells overexpressing human CD40, PE anti-human IgG, MFI
[2] = molecular target: human CD40-His protein (human) (UniProt P25942); experiment: ELISA on coated human CD40-His (1.0 ug/ml), anti-human IgG-HRP, OD450
[3] = molecular target: human CD40 on cells (human) (UniProt P25942); experiment: FACS on Jurkat cells overexpressing human CD40, PE anti-human IgG, MFI; remark: listed apart in the source
[4] = molecular target: human CD40 on cells (human) (UniProt P25942); experiment: FACS on human B cells (CD19+ gate), PE anti-human IgG Fc, MFI

human CD40 on cells (human), sequence (P25942 21-277): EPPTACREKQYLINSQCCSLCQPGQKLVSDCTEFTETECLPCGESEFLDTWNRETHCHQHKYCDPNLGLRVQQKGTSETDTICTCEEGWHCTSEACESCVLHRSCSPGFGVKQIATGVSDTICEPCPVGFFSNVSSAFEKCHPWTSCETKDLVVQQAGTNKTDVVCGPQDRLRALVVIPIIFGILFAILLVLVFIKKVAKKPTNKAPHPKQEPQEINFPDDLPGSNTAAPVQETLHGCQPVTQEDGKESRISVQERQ
selicrelumab (antibody), sequence (VH): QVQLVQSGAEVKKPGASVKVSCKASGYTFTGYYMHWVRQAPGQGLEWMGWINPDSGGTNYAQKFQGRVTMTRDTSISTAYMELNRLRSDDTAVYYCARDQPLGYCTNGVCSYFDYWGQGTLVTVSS
selicrelumab (antibody), sequence (VL): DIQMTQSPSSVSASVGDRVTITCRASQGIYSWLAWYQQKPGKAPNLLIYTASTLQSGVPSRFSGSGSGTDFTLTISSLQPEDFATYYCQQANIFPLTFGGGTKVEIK
human CD40-His protein (human), sequence (P25942 21-193 limits assumed): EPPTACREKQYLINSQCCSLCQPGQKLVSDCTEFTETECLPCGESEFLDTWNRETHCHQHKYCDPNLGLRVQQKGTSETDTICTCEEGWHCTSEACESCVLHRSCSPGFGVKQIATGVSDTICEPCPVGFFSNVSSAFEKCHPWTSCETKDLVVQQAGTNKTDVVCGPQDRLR

EC50 (read off the curve) [1]: 0.9 nM
EC50 (read off the curve) [2]: 0.7 nM
EC50 (read off the curve) [3]: 1 nM
EC50 (read off the curve) [4]: 1 nM
Substance: selicrelumab (antibody)
